Reference: the supplement of paper PMC12042874
± gives the uncertainty stated by the source.

Test: amyloid nucleation score (Sup35N fusion, yeast selection) (log enrichment); library NNK2; higher = more nucleation; inactive = no reads after selection
Outline: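 Peptides of 20 random codons, each fused to Sup35N, were expressed in psi-negative yeast. Cells were induced with 100 μM copper sulfate for 24 hours and grown 7 days at 30°C on medium lacking adenine and uracil, and plasmid inserts before and after selection were Illumina-sequenced. Nucleation scores are DiMSum log enrichments of output over input reads, centred on the mode score of non-aggregating sequences, and sequences under 100 input reads were excluded.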

| Substance | amyloid nucleation score |
| --- | --- |
| DDCVPQWEYK | 0.695 ± 0.42 |
| DDFNERSSLHVVYDRF | -0.901 ± 1 |
| DDGMCRRYCLGRKYTMGIEL | 1.78 ± 0.14 |
| DDIIISPVPDHE | inactive |
| DDSTFKSRFVLGIPAICLGS | -1.37 ± 0.4 |
| DDVYNSGYKELIRSQ | 0.348 ± 0.25 |
| DEECTEPTWIGDEFDPLDIE | inactive |
| DEIQGLNRRYLPRG | 0.936 ± 0.52 |
| DESSSRDETCGVFTHLVCVV | -0.249 ± 0.28 |
| DFAFAFVVGTVLAISICVKH | -0.459 ± 0.56 |
| DFFFCFRYTDLEQE | -0.195 ± 0.61 |
| DFMRELYFMGSRPFEMLYMY | 0.102 ± 0.77 |
| DFPQCKNTETLL | 0.279 ± 0.4 |
| DFSAFNEGHQINHLIQGSV | -1.35 ± 0.62 |
| DFTRYYFYIPHRRVHTVH | -0.763 ± 0.4 |
| DFYMYSVVDLS | -0.767 ± 0.31 |
| DGFHLNALHLESRQLGVGFS | 3.87 ± 0.069 |
| DGFHQCAS | 3.74 ± 0.089 |
| DGGREPIVFYSQNYVCNKFV | 6.775 ± 0.048 |
| DGINLDICCCNTDKLNIDRI | inactive |
| DGLFGVTTWNSLFLWILKR | -1.1 ± 0.62 |
| DGTGYGTSKLTWWRDFLKRC | -0.192 ± 0.63 |
| DGVSVPSCRLKRKAVIAGWL | 0.662 ± 0.4 |
| DGYLRYYSNLDG | 0.147 ± 1.1 |
| DHHDTTHYYIWVDKYKYLV | -0.216 ± 0.64 |
| DHLGWHEVTVSLELSFFYRV | 4.83 ± 0.11 |

| Substance | amyloid nucleation score |
| --- | --- |
| DHLNGASRRMWLLTYFTVFE | inactive |
| DHRILILLTPQFSYDIWTVH | inactive |
| DIFITTSSFTLRCAYIIKGI | -1.44 ± 0.78 |
| DIFLTLEFYISVETKGAKKA | 3.92 ± 0.05 |
| DIGRLTLHGRVSADG | 0.748 ± 0.25 |
| DISYGSSDINHCLVTYMWQC | 0.192 ± 1 |
| DIVNLSEDGLSSNELFIARM | -0.52 ± 1.1 |
| DIWIMI | -0.225 ± 0.45 |
| DKANRDQWHQAKSSVCFGGV | 0.089 ± 0.56 |
| DKANTRGGLRCYKMHQFAFV | 1.15 ± 0.21 |
| DKDCVGIVLLFGQCVSITLA | inactive |
| DKFISLFKRGAHKDVQ | -0.42 ± 0.76 |
| DKGEEPELIV | 0.742 ± 0.16 |
| DKIVI | -0.978 ± 0.54 |
| DKLVRWHLGMLIGGRGSCLF | 0.294 ± 0.8 |
| DKSNLARFTSSKWS | 0.426 ± 0.35 |
| DKYFLLAYGVWGSLRFLTLC | -0.288 ± 1 |
| DLFVSGTVETFPANWGGMSR | 0.665 ± 0.42 |
| DLGGQMNYLVLMGNDMWNV | -1.01 ± 0.78 |
| DLGIYSLTNFKMLPST | 0.544 ± 0.52 |
| DLLQREIDRSIVRLWIMEKG | 0.252 ± 0.49 |
| DLRIREMDLGNWSWASR | 0.653 ± 0.23 |
| DLSDIDRCGRLVNRESILLR | 1.45 ± 0.5 |
| DLSRTRGTEKASRSVWLRSM | 3.97 ± 0.048 |
| DLVVMSLRR | 6.18 ± 0.057 |
| DLWRY | 0.102 ± 0.77 |

| Substance | amyloid nucleation score |
| --- | --- |
| DLYRYNMLKDVV | 4.403 ± 0.037 |
| DLYSSV | 0.75 ± 0.41 |
| DNDRHNAVALRSSVIVLLGK | inactive |
| DNLSGMIPTKTVDSSRP | 0.611 ± 0.81 |
| DNMGMRSGSSDLHREVWSHC | 0.172 ± 0.35 |
| DNRGKLDWAPSSVVSVWLIC | 3.74 ± 0.089 |
| DPAELQ | -0.256 ± 0.79 |
| DPWRGGPVSSH | 1.18 ± 0.23 |
| DQDSNSFAQSVVSHNVLVNI | inactive |
| DQEALGRLWYLFAHGSLVTR | 0.847 ± 0.44 |
| DQGVMLFRG | -0.134 ± 0.32 |
| DQKAIVMVRNLDAWVGCAHY | 0.266 ± 0.46 |
| DREVSRVGLD | 1.29 ± 0.34 |
| DREWVYYCGYWECTMFRCIY | 1.12 ± 0.16 |
| DRFMVMFMLKVGVIVWNYGD | 0.262 ± 0.54 |
| DRGECYDLIGLCHSPVCCYP | -0.038 ± 0.42 |
| DRGRSNWFRMMWIDGEHYSE | -0.492 ± 0.61 |
| DRLLHDTE | -0.866 ± 0.76 |
| DRNMSVNI | 1.22 ± 0.44 |
| DRPGDRSGTAWAWFRCETGG | 1.1 ± 0.31 |
| DRSRLGVGGVDVLWFLHSSK | 5.328 ± 0.046 |
| DRTGGPIWVVGYPARGRAAL | 0.99 ± 0.29 |
| DRVCAGLKPVRNN | 0.836 ± 0.31 |
| DRYWLERWSDGNCGRSARIR | 1.22 ± 0.4 |
| DSGVEMYLFNSRFLRSLGND | 3.65 ± 0.052 |
| DSIARYCVTYLWCNLHLLVK | 4.01 ± 0.13 |

| Substance | amyloid nucleation score |
| --- | --- |
| DSLTCCIS | 3.37 ± 0.093 |
| DSRCIDTVFNWYEHTSSRYR | -0.287 ± 0.55 |
| DSSSVGGVLPVCVNSKSMED | -0.236 ± 0.41 |
| DTVALCNWLMRLESFSFAGQ | 1.83 ± 0.19 |
| DTVISCLGVG | -0.087 ± 1 |
| DVDSCW | 0.554 ± 0.43 |
| DVIPRVMIKALT | 0.063 ± 0.56 |
| DVKWPYRLDFVKLYYIYKEG | -1.88 ± 0.53 |
| DVYVVIPNYGPQEWVSNYS | -0.341 ± 0.5 |
| DWFSTLHLIGSAS | -0.041 ± 0.63 |
| DWGGVLCATVG | inactive |
| DWKNYRMMHVEVWTACRILG | 0.734 ± 0.81 |
| DWLYMMKIARSPVVCRSRPS | 0.38 ± 0.35 |
| DWQYRLKSVLVFRWQ | 3.5 ± 0.15 |
| DYAFRVYSGIPLKLSNS | -0.373 ± 0.65 |
| DYANELVA | 0.099 ± 0.25 |
| DYDEIMRLMLWSSLLLFR | 0.47 ± 0.34 |
| DYIIVRMCADILSGSVHGAM | -0.068 ± 0.45 |
| DYTSCEDVLSVVRPWNYNVE | 0.714 ± 0.47 |
| DYVMYPGLVAMLSVSTPSQE | 0.477 ± 0.49 |
| EAAYLVFSCVMCTFYFEFCF | 2.55 ± 0.089 |
| EAFNTSCLVFLRNDWYWSGF | inactive |
| EALMSSTIYYVPCSRHLIMF | -0.576 ± 0.63 |
| EAWRNLYFGLSRRHRRYGSL | 1.49 ± 0.18 |
| ECERERYLLGTRT | 0.322 ± 0.25 |
| ECGPWKFDRIERDMNAVVER | 2.46 ± 0.17 |

| Substance | amyloid nucleation score |
| --- | --- |
| ECGVLFV | 0.827 ± 0.6 |
| ECRMRLVFHRSIGYTTQCFV | 3.37 ± 0.064 |
| ECYDFYTWESYGLGCTSCEK | -0.01 ± 0.43 |
| EDCVMISTCNFLFTINVLEA | 6.38 ± 0.065 |
| EDIIIVQFVV | 0.424 ± 0.24 |
| EDKNLVWLLCQGEM | 4.43 ± 0.058 |
| EDTMFHNFQWSKAYLCYYWF | -0.294 ± 1.1 |
| EDVYKRTQRDWDCLILYQRY | -0.765 ± 0.76 |
| EEKDQRLISDSWGMF | -0.013 ± 0.56 |
| EENGCS | 1.22 ± 0.24 |
| EESFYTTPLSVFCVNLRYIV | -0.383 ± 1.1 |
| EFANWFVGYNQGSLGHALKQ | 0.355 ± 0.42 |
| EFGYFYLAMKISTSRYKQNY | 1.41 ± 0.14 |
| EFHVRGDSDGYC | -1.41 ± 1.1 |
| EFLYKLRLSLSMGCGHEELG | 4.72 ± 0.061 |
| EFMLSVRKVVPRIYGNNPRV | 2.78 ± 0.084 |
| EFSRDRSENIAGTPSLRLNQ | 4.56 ± 0.049 |
| EFWPIITTSRRDMISNLDQG | -0.593 ± 0.43 |
| EGGLYNCYADTPTKVW | -1.07 ± 0.74 |
| EGLIDCCIH | inactive |
| EGQSGAILGLMRGTSWVESA | 0.984 ± 0.32 |
| EGTIWRVSW | 0.392 ± 0.56 |
| EHIASLVMNAANSTNPVGQK | -0.339 ± 0.76 |
